Results on 16 molecules are retold here after publication PMC13276077.

The target of series [1] is MeCP2 R133G;histone octamer (Homo sapiens;, UniProt P51608;P0C0S8;P62807;P68431;P62805 1-486;2-130;2-126;2-136;2-103, R133G|H2B T115C;H3.1 C96S;C110A). The series is described as follows: EMSA; 20 mM HEPES pH 7.5, 75 mM NaCl, 125 mM KCl, 50 uM EDTA, 2.5 mM beta-mercaptoethanol, 5% glycerol, BSA, 1.58 uM 47 bp competitor DNA (nucleosome assays); absent w.
The target of series [2] is MeCP2 MBD;histone octamer (Homo sapiens;, UniProt P51608;P0C0S8;P62807;P68431;P62805 77-167;2-130;2-126;2-136;2-103, |H2B T115C;H3.1 C96S;C110A). The description is as above.
Series [3] addresses MeCP2 full-length, e2 isoform;histone octamer (Homo sapiens;, UniProt P51608;P0C0S8;P62807;P68431;P62805 1-486;2-130;2-126;2-136;2-103, |H2B T115C;H3.1 C96S;C110A). The description is as above.
Series [4] addresses MeCP2 AT-DIRmut;histone octamer (Homo sapiens;, UniProt P51608;P0C0S8;P62807;P68431;P62805 1-486;2-130;2-126;2-136;2-103, R188G;R190G;K254N;K256N;R268Q|H2B T115C;H3.1 C96S;C110A). The series is described as above.
Series [5] addresses MeCP2 full-length, e2 isoform;histone H1.0;histone octamer (Homo sapiens;Homo sapiens;, UniProt P51608;P07305;P0C0S8;P62807;P68431;P62805 1-486;1-194;2-130;2-126;2-136;2-103, ||H2B T115C;H3.1 C96S;C110A). The series is described as follows: EMSA; histone H1.0 pre-bound (chromatosome); 20 mM HEPES pH 7.5, 75 mM NaCl, 125 mM KCl, 50 uM EDTA, 2.5 mM beta-mercaptoethanol, 5% glycerol, BSA, 1.58 uM 47 bp competitor DNA (nucleosome assays); absent w.

The target of series [6] is MeCP2 full-length, e2 isoform (Homo sapiens, UniProt P51608 1-486). The series is described as follows: EMSA; 20 mM HEPES pH 7.5, 75 mM NaCl, 125 mM KCl, 50 uM EDTA, 2.5 mM beta-mercaptoethanol, 5% glycerol, BSA, 1.58 uM 47 bp competitor DNA (nucleosome assays; absent with free DNA), room temperature 30 min. The conditions noted are these: protein: recombinant, tags: none.

The target of series [7] is HisMBP-MeCP2 162-309;histone octamer (Homo sapiens;, UniProt P51608;P0C0S8;P62807;P68431;P62805 162-309;2-130;2-126;2-136;2-103, |H2B T115C;H3.1 C96S;C110A). The series is described as follows: EMSA; 20 mM HEPES pH 7.5, 75 mM NaCl, 125 mM KCl, 50 uM EDTA, 2.5 mM beta-mercaptoethanol, 5% glycerol, BSA, 1.58 uM 47 bp competitor DNA (nucleosome assays); absent w.

Residue numbers refer to the chain shown, from its start.

B1: 15-N601-15 nucleosome -1 meCpG (nucleosome)
DNA 1: ATGGAACACATTGCACAGGATGTATATATCTGACACGTGCCTGGAGACTAGGGAGTAATCCCCTTGGCGGTTAAAACGCGGGGGACAGCGCGTACGTGCGTTTAAGCGGTGCTAGAGCTGTCTACGACCAATTGAGCGGCCTCGGCACCGGGATTCTCCAGGGCGGCCGCGTATT
DNA 2: AATACGCGGCCGCCCTGGAGAATCCCGGTGCCGAGGCCGCTCAATTGGTCGTAGACAGCTCTAGCACCGCTTAAACGCACGTACGCGCTGTCCCCCGCGTTTTAACCGCCAAGGGGATTACTCCCTAGTCTCCAGGCACGTGTCAGATATATACATCCTGTGCAATGTGTTCCAT
modifications: meCpG at -1
Consider B1, for which the Kd in series [1] came to 522 nM; in series [2] it was 812 nM; in series [3] it was 130 nM; in series [4], 71.3 nM. For the same molecule, in series [5], the binding result is given as “no binding”.

B2: 15-N601-15 free DNA -1 meCpG (dsDNA)
DNA 1: B1 DNA 1
DNA 2: B1 DNA 2
modifications: meCpG at -1
In the case of B2, the Kd in series [6] (label: 5' 6-FAM, blunt) stood at 45.3 ± 2 nM.

B3: 15-N601-15 free DNA unmethylated (dsDNA)
DNA 1: B1 DNA 1
DNA 2: B1 DNA 2
In the case of B3, the Kd in series [6] (label: 5' 6-FAM, blunt) was 75.9 ± 4.2 nM.

B4: 15-N601-15 free DNA -61 meCpG (dsDNA)
DNA 1: B1 DNA 1
DNA 2: B1 DNA 2
modifications: meCpG at -61
As for B4, in series [6] (label: 5' 6-FAM, blunt), the Kd worked out at 50.5 ± 1.9 nM.

B5: N601 nucleosome core particle -61 meCpG (nucleosome)
DNA 1: CAGGATGTATATATCTGACACGTGCCTGGAGACTAGGGAGTAATCCCCTTGGCGGTTAAAACGCGGGGGACAGCGCGTACGTGCGTTTAAGCGGTGCTAGAGCTGTCTACGACCAATTGAGCGGCCTCGGCACCGGGATTCTCCA
DNA 2: TGGAGAATCCCGGTGCCGAGGCCGCTCAATTGGTCGTAGACAGCTCTAGCACCGCTTAAACGCACGTACGCGCTGTCCCCCGCGTTTTAACCGCCAAGGGGATTACTCCCTAGTCTCCAGGCACGTGTCAGATATATACATCCTG
modifications: meCpG at -61
For the molecule B5, in series [3], the binding result is “no binding”.

B6: N601-15 nucleosome 81 meCpA (nucleosome)
DNA 1: ATGGAACACATTGCACAGGATGTATATATCTGACACGTGCCTGGAGACTAGGGAGTAATCCCCTTGGCGGTTAAAACGCGGGGGACAGCGCGTACGTGCGTTTAAGCGGTGCTAGAGCTGTCTACGACCAATTGAGCGGCCTCGGCACCGGGATTCTCCA
DNA 2: TGGAGAATCCCGGTGCCGAGGCCGCTCAATTGGTCGTAGACAGCTCTAGCACCGCTTAAACGCACGTACGCGCTGTCCCCCGCGTTTTAACCGCCAAGGGGATTACTCCCTAGTCTCCAGGCACGTGTCAGATATATACATCCTGTGCAATGTGTTCCAT
modifications: asymmetric meCpA at 81
In series [3], B6 displayed a Kd of 357 nM.

B7: N601-15 nucleosome (single 15 bp linker) (nucleosome)
DNA 1: B6 DNA 1
DNA 2: B6 DNA 2
Molecule B7 yielded a dissociation constant Kd in series [3] of 419 nM.

B8: 16-N603-30 nucleosome 91 meCpA (nucleosome)
DNA 1: GAGCCACAAAATCACCGACGCTCACGGGTGCCCAGTTCGCGCGCCCACCTACCGTGTGAAGTCGTCACTCGGGCTTCTAAGTACGCTTAGCGCACGGTAGAGCGCAATCCAAGGCTAACCACCGTGCATCGATGTTGAAAGAGGCCCTCCGTCCTTATTACTTCAAGTCCCTGGGGTACCCGTTTCACTGCCA
DNA 2: TGGCAGTGAAACGGGTACCCCAGGGACTTGAAGTAATAAGGACGGAGGGCCTCTTTCAACATCGATGCACGGTGGTTAGCCTTGGATTGCGCTCTACCGTGCGCTAAGCGTACTTAGAAGCCCGAGTGACGACTTCACACGGTAGGTGGGCGCGCGAACTGGGCACCCGTGAGCGTCGGTGATTTTGTGGCTC
modifications: asymmetric meCpA at 91
Regarding B8, the Kd worked out at 103 nM in series [7]; 162 nM in series [1]; 85.7 nM in series [2]; 57.1 nM in series [3]; 25.3 nM in series [4].

B9: 16-N603-30 free DNA 91 meCpA (dsDNA)
DNA 1: B8 DNA 1
DNA 2: B8 DNA 2
modifications: asymmetric meCpA at 91
As for B9, in series [6] (blunt), the Kd amounted to 27.8 ± 1.9 nM.

B10: 16-N603-30 nucleosome 81 meCpA (nucleosome)
DNA 1: B8 DNA 1
DNA 2: B8 DNA 2
modifications: asymmetric meCpA at 81
Consider B10, for which the figures for the equilibrium dissociation constant (Kd) in series [2], in series [3] and in series [4] were 268 nM, 65.3 nM and 42.2 nM, respectively.

B11: 16-N603-30 +81 CG free DNA 81 meCpG (dsDNA)
DNA 1: B8 DNA 1 with T22C, A24G, C25G
DNA 2: B8 DNA 2 with G169C, T170C, A172G
modifications: meCpG at 81
Regarding B11, the Kd in series [6] (blunt) turned out to be 23.8 ± 1.2 nM.

B12: 16-N603-30 +91 CG free DNA 91 meCpG (dsDNA)
DNA 1: B8 DNA 1 with T12C, A14G, C15G
DNA 2: B8 DNA 2 with G179C, T180C, A182G
modifications: meCpG at 91
In the case of B12, in series [6] (blunt), the Kd turned out to be 24.6 ± 1.7 nM.

B13: 16-N603-30 free DNA unmethylated (dsDNA)
DNA 1: B8 DNA 1
DNA 2: B8 DNA 2
With B13, in series [6] (label: 5' 6-FAM), the Kd was 46.2 ± 2.8 nM.

B14: 16-N603-30 +91 CG nucleosome 91 meCpG (nucleosome)
DNA 1: B8 DNA 1 with T12C, A14G, C15G
DNA 2: B8 DNA 2 with G179C, T180C, A182G
modifications: meCpG at 91
B14: the Kd in series [3] amounted to 71.3 nM.

B15: 16-N603-30 +81 CG nucleosome 81 meCpG (nucleosome)
DNA 1: B8 DNA 1 with T22C, A24G, C25G
DNA 2: B8 DNA 2 with G169C, T170C, A172G
modifications: meCpG at 81
Regarding B15, the Kd in series [3] was found to be 65.5 nM.

B16: 16-N603-30 free DNA 81 meCpA (dsDNA)
DNA 1: B8 DNA 1
DNA 2: B8 DNA 2
modifications: asymmetric meCpA at 81
Take B16: the Kd in series [6] (label: 5' 6-FAM) was determined as 27.1 ± 1.8 nM.
